{"source": "patent CN114591430A", "binders": {"B1": {"name": "BSA抗体B2 (antibody, V domains shown)", "VH": "VKLQESGGGLVKPGGSLKLSCAASGFTFSLYDESWVRQTPEKRLEWVAEIFLGVYRYVPESKVRFTMSRDNAKNTLYLQMSSLRSEDTAMYYCVRLCYWEPEVKKCWGQGTTVTVSS", "VL": "DIELTQSPLTLSVTIGQPASISCESDLSLKESLDWLLQRPGQSPKRLIYEDLNADCGVPDRFTGSGSGTDSTLKISRVEAEDLGVYYCEIKGTFRWSFGGGTKLEIK"}}, "key": {"CHO细胞裂解液 [1]": {"biological_target": "CHO细胞裂解液", "experiment": "sandwich ELISA, coat B2, detection biotin-B6, lysate 500 ug/ml"}, "HEK293细胞裂解液 [2]": {"biological_target": "HEK293细胞裂解液", "experiment": "sandwich ELISA, coat B2, detection biotin-B6, lysate 500 ug/ml"}, "Vero细胞裂解液 [3]": {"biological_target": "Vero细胞裂解液", "experiment": "sandwich ELISA, coat B2, detection biotin-B6, lysate 500 ug/ml"}, "CHO细胞裂解液 [4]": {"biological_target": "CHO细胞裂解液", "experiment": "sandwich ELISA, coat B2, detection biotin-B6, lysate 62.5 ug/ml"}, "HEK293细胞裂解液 [5]": {"biological_target": "HEK293细胞裂解液", "experiment": "sandwich ELISA, coat B2, detection biotin-B6, lysate 62.5 ug/ml"}, "Vero细胞裂解液 [6]": {"biological_target": "Vero细胞裂解液", "experiment": "sandwich ELISA, coat B2, detection biotin-B6, lysate 62.5 ug/ml"}, "CHO细胞裂解液 [7]": {"biological_target": "CHO细胞裂解液", "experiment": "sandwich ELISA, coat B2, detection biotin-B6, lysate 15.63 ug/ml"}, "HEK293细胞裂解液 [8]": {"biological_target": "HEK293细胞裂解液", "experiment": "sandwich ELISA, coat B2, detection biotin-B6, lysate 15.63 ug/ml"}, "Vero细胞裂解液 [9]": {"biological_target": "Vero细胞裂解液", "experiment": "sandwich ELISA, coat B2, detection biotin-B6, lysate 15.63 ug/ml"}, "CHO细胞裂解液 [10]": {"biological_target": "CHO细胞裂解液", "experiment": "sandwich ELISA, coat B2, detection biotin-B6, lysate 31.25 ug/ml"}, "HEK293细胞裂解液 [11]": {"biological_target": "HEK293细胞裂解液", "experiment": "sandwich ELISA, coat B2, detection biotin-B6, lysate 31.25 ug/ml"}, "Vero细胞裂解液 [12]": {"biological_target": "Vero细胞裂解液", "experiment": "sandwich ELISA, coat B2, detection biotin-B6, lysate 31.25 ug/ml"}, "牛血清白蛋白(BSA) (bovine) [13]": {"biological_target": "牛血清白蛋白(BSA) (bovine) (UniProt P02769)", "sequence (P02769 25-607)": "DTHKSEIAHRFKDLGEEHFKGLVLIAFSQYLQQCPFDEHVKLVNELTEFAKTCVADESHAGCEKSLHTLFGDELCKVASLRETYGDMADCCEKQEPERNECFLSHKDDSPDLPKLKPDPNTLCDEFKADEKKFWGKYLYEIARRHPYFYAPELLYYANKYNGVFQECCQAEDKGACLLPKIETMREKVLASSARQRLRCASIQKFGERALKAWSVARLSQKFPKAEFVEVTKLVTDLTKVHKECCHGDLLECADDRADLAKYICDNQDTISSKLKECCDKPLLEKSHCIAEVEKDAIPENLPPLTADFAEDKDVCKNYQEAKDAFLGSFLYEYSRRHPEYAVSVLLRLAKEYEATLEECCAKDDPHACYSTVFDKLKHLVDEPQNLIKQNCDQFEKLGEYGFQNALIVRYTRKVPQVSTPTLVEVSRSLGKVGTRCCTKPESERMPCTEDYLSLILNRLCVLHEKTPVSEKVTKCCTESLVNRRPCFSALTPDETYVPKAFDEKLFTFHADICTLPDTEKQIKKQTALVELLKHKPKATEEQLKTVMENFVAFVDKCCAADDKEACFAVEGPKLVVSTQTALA", "experiment": "sandwich ELISA, coat B2 2 ug/ml, BSA 1 ng/ml, detection biotin-B1 0.2 ug/ml"}, "牛血清白蛋白(BSA) (bovine) [14]": {"biological_target": "牛血清白蛋白(BSA) (bovine) (UniProt P02769)", "experiment": "sandwich ELISA, coat B2 2 ug/ml, BSA 1 ng/ml, detection biotin-B4 0.2 ug/ml"}, "牛血清白蛋白(BSA) (bovine) [15]": {"biological_target": "牛血清白蛋白(BSA) (bovine) (UniProt P02769)", "experiment": "sandwich ELISA, coat B2 2 ug/ml, BSA 1 ng/ml, detection biotin-B5 0.2 ug/ml"}, "牛血清白蛋白(BSA) (bovine) [16]": {"biological_target": "牛血清白蛋白(BSA) (bovine) (UniProt P02769)", "experiment": "sandwich ELISA, coat B2 2 ug/ml, BSA 3 ng/ml, detection biotin-B6 0.2 ug/ml"}, "牛血清白蛋白(BSA) (bovine) [17]": {"biological_target": "牛血清白蛋白(BSA) (bovine) (UniProt P02769)", "experiment": "sandwich ELISA, coat B2 2 ug/ml, BSA 24 ng/ml, detection biotin-B6 0.2 ug/ml"}, "牛血清白蛋白(BSA) (bovine) [18]": {"biological_target": "牛血清白蛋白(BSA) (bovine) (UniProt P02769)", "experiment": "sandwich ELISA, coat B2 2 ug/ml, BSA 48 ng/ml, detection biotin-B6 0.2 ug/ml"}, "牛血清白蛋白(BSA) (bovine) [19]": {"biological_target": "牛血清白蛋白(BSA) (bovine) (UniProt P02769)", "experiment": "sandwich ELISA, coat B2 2 ug/ml, BSA 1.5 ng/ml, detection biotin-B6 0.2 ug/ml"}, "牛血清白蛋白(BSA) (bovine) [20]": {"biological_target": "牛血清白蛋白(BSA) (bovine) (UniProt P02769)", "experiment": "ELISA, BSA coated at 1 ug/ml, biotin-labelled antibody at dilution 1K, HRP-avidin"}, "牛血清白蛋白(BSA) (bovine) [21]": {"biological_target": "牛血清白蛋白(BSA) (bovine) (UniProt P02769)", "experiment": "ELISA, BSA coated at 1 ug/ml, biotin-labelled antibody at dilution 2K, HRP-avidin"}, "牛血清白蛋白(BSA) (bovine) [22]": {"biological_target": "牛血清白蛋白(BSA) (bovine) (UniProt P02769)", "experiment": "ELISA, BSA coated at 1 ug/ml, biotin-labelled antibody at dilution 4K, HRP-avidin"}, "牛血清白蛋白(BSA) (bovine) [23]": {"biological_target": "牛血清白蛋白(BSA) (bovine) (UniProt P02769)", "experiment": "ELISA, BSA coated at 1 ug/ml, biotin-labelled antibody at dilution 16K, HRP-avidin"}, "牛血清白蛋白(BSA) (bovine) [24]": {"biological_target": "牛血清白蛋白(BSA) (bovine) (UniProt P02769)", "experiment": "ELISA, BSA coated at 1 ug/ml, biotin-labelled antibody at dilution 32K, HRP-avidin"}, "牛血清白蛋白(BSA) (bovine) [25]": {"biological_target": "牛血清白蛋白(BSA) (bovine) (UniProt P02769)", "experiment": "ELISA, BSA coated at 1 ug/ml, biotin-labelled antibody at dilution 64K, HRP-avidin"}, "牛血清白蛋白(BSA) (bovine) [26]": {"biological_target": "牛血清白蛋白(BSA) (bovine) (UniProt P02769)", "experiment": "ELISA, BSA coated at 1 ug/ml, biotin-labelled antibody at dilution 128K, HRP-avidin"}, "牛血清白蛋白(BSA) (bovine) [27]": {"biological_target": "牛血清白蛋白(BSA) (bovine) (UniProt P02769)", "experiment": "ELISA, BSA coated at 1 ug/ml, biotin-labelled antibody at dilution 256K, HRP-avidin"}, "牛血清白蛋白(BSA) (bovine) [28]": {"biological_target": "牛血清白蛋白(BSA) (bovine) (UniProt P02769)", "experiment": "ELISA, BSA coated at 1 ug/ml, biotin-labelled antibody at dilution 512K, HRP-avidin"}, "牛血清白蛋白(BSA) (bovine) [29]": {"biological_target": "牛血清白蛋白(BSA) (bovine) (UniProt P02769)", "experiment": "sandwich ELISA, coat B2 2 ug/ml, BSA 6 ng/ml, detection biotin-B6 0.2 ug/ml, mean of A and B"}, "牛血清白蛋白(BSA) (bovine) [30]": {"biological_target": "牛血清白蛋白(BSA) (bovine) (UniProt P02769)", "experiment": "sandwich ELISA, coat B2 2 ug/ml, BSA 24 ng/ml, detection biotin-B6 0.2 ug/ml, mean of A and B"}, "牛血清白蛋白(BSA) (bovine) [31]": {"biological_target": "牛血清白蛋白(BSA) (bovine) (UniProt P02769)", "experiment": "sandwich ELISA, coat B2 2 ug/ml, BSA 1 ng/ml (positive sample), detection biotin-B6 0.2 ug/ml"}, "牛血清白蛋白(BSA) (bovine) [32]": {"biological_target": "牛血清白蛋白(BSA) (bovine) (UniProt P02769)", "experiment": "indirect ELISA, BSA coated at 1 ug/ml, purified antibody at dilution 2K, HRP goat anti-mouse IgG"}, "牛血清白蛋白(BSA) (bovine) [33]": {"biological_target": "牛血清白蛋白(BSA) (bovine) (UniProt P02769)", "experiment": "indirect ELISA, BSA coated at 1 ug/ml, purified antibody at dilution 128K, HRP goat anti-mouse IgG"}, "牛血清白蛋白(BSA) (bovine) [34]": {"biological_target": "牛血清白蛋白(BSA) (bovine) (UniProt P02769)", "experiment": "indirect ELISA, BSA coated at 1 ug/ml, purified antibody at dilution 256K, HRP goat anti-mouse IgG"}, "牛血清白蛋白(BSA) (bovine) [35]": {"biological_target": "牛血清白蛋白(BSA) (bovine) (UniProt P02769)", "experiment": "indirect ELISA, BSA coated at 1 ug/ml, purified antibody at dilution 1024K, HRP goat anti-mouse IgG"}}, "note": "“And” between values parts separate entries of the source, which are not always exact repeats. Equal values may be shown once.", "data": [{"binder": "B1", "values": [{"measurement": "OD450", "setting": "CHO细胞裂解液 [1]", "result": 0.135}, {"measurement": "OD450", "setting": "HEK293细胞裂解液 [2]", "result": 0.139}, {"measurement": "OD450", "setting": "Vero细胞裂解液 [3]", "result": 0.134}, {"measurement": "OD450", "setting": "CHO细胞裂解液 [4]", "result": 0.129}, {"measurement": "OD450", "setting": "HEK293细胞裂解液 [5]", "result": 0.142}, {"measurement": "OD450", "setting": "Vero细胞裂解液 [6]", "result": 0.137}, {"measurement": "OD450", "setting": "CHO细胞裂解液 [7]", "result": 0.141}, {"measurement": "OD450", "setting": "HEK293细胞裂解液 [8]", "result": 0.136}, {"measurement": "OD450", "setting": "Vero细胞裂解液 [9]", "result": 0.136}, {"measurement": "OD450", "setting": "CHO细胞裂解液 [10]", "result": 0.136}, {"measurement": "OD450", "setting": "HEK293细胞裂解液 [11]", "result": 0.134}, {"measurement": "OD450", "setting": "Vero细胞裂解液 [12]", "result": 0.142}, {"measurement": "OD450", "setting": "牛血清白蛋白(BSA) (bovine) [13]", "result": "0.312 and 0.315"}, {"measurement": "OD450", "setting": "牛血清白蛋白(BSA) (bovine) [14]", "result": "0.319 and 0.332"}, {"measurement": "OD450", "setting": "牛血清白蛋白(BSA) (bovine) [15]", "result": "0.312 and 0.315"}, {"measurement": "OD450", "setting": "牛血清白蛋白(BSA) (bovine) [16]", "result": "0.509 and 0.515"}, {"measurement": "OD450", "setting": "牛血清白蛋白(BSA) (bovine) [17]", "result": "1.51 and 1.5"}, {"measurement": "OD450", "setting": "牛血清白蛋白(BSA) (bovine) [18]", "result": "2.2 and 2.21"}, {"measurement": "OD450", "setting": "牛血清白蛋白(BSA) (bovine) [19]", "result": "0.404 and 0.412"}, {"measurement": "OD450", "setting": "牛血清白蛋白(BSA) (bovine) [20]", "result": 2.3}, {"measurement": "OD450", "setting": "牛血清白蛋白(BSA) (bovine) [21]", "result": 2.21}, {"measurement": "OD450", "setting": "牛血清白蛋白(BSA) (bovine) [22]", "result": 2.02}, {"measurement": "OD450", "setting": "牛血清白蛋白(BSA) (bovine) [23]", "result": 1.6}, {"measurement": "OD450", "setting": "牛血清白蛋白(BSA) (bovine) [24]", "result": 1.22}, {"measurement": "OD450", "setting": "牛血清白蛋白(BSA) (bovine) [25]", "result": 1.12}, {"measurement": "OD450", "setting": "牛血清白蛋白(BSA) (bovine) [26]", "result": 0.821}, {"measurement": "OD450", "setting": "牛血清白蛋白(BSA) (bovine) [27]", "result": 0.509}, {"measurement": "OD450", "setting": "牛血清白蛋白(BSA) (bovine) [28]", "result": 0.308}, {"measurement": "OD450 (平均值)", "setting": "牛血清白蛋白(BSA) (bovine) [29]", "result": 0.688}, {"measurement": "OD450 (平均值)", "setting": "牛血清白蛋白(BSA) (bovine) [30]", "result": 1.5}, {"measurement": "OD450", "setting": "牛血清白蛋白(BSA) (bovine) [31]", "result": "0.392 and 0.389"}, {"measurement": "OD450", "setting": "牛血清白蛋白(BSA) (bovine) [32]", "result": 1.69}, {"measurement": "OD450", "setting": "牛血清白蛋白(BSA) (bovine) [33]", "result": 0.357}, {"measurement": "OD450", "setting": "牛血清白蛋白(BSA) (bovine) [34]", "result": 0.208}, {"measurement": "OD450", "setting": "牛血清白蛋白(BSA) (bovine) [35]", "result": 0.144}]}]}
